T1: human MSLN-R1-his protein (human, UniProt Q13421 296-390)
T1 construct: also called hMSLN-R1-his; human MSLN-R1 protein; not shown: His tag
T1 chain: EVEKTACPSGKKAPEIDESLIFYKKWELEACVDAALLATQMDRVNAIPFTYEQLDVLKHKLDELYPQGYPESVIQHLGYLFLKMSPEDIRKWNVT

T2: monkey MSLN full-length protein (NCBI: XP_028696439.1) expressed on HEK293T-monkey MSLN cells (monkey)
T2 construct: Whole encoded precursor
T2 chain: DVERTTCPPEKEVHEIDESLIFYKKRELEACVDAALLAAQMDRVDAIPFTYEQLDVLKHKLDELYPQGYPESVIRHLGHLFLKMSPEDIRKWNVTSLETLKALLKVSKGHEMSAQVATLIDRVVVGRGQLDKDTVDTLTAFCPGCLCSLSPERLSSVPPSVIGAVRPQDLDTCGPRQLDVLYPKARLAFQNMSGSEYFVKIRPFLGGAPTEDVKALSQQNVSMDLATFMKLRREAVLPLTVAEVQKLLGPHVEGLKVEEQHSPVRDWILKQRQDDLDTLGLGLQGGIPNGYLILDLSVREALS


Experiments:
[1] = molecular target: T3, human MSLN-FL-his protein (human, UniProt Q13421 296-580); experiment: ELISA, coated antigen; antibody 0.1 nM
T3 construct: also called hMSLN-FL-his; human MSLN full-length protein; not shown: His tag

[2] = molecular target: T3, human MSLN-FL-his protein; experiment: ELISA, coated antigen; antibody 0.0001 nM
Method: (§1) The plate was sealed with a plastic film and incubated at 4° C. overnight. The next day, the plate was washed twice with PBST, and a blocking buffer [PBS+2% (w/w) BSA] was added for blocking at room temperature for 2 h. The blocking buffer was discarded, and a chimeric antibody or negative control antibody serially diluted from 100 nM was added at 50 μL/well. After incubation at 37° C. for 2 h, the plate was washed 3 times with PBST. […] After incubation at 37° C. for 2 h, the plate was washed 5 times with PBST. A TMB substrate was added at 50 μL/well for incubation at room temperature for 5-10 min, and then a stop solution (1.0 N HCl) was added at 50 μL/well.

[3] = molecular target: T1, human MSLN-R1-his protein; experiment: ELISA, coated antigen; antibody 0.01 nM
Method: as §1

[4] = molecular target: T3, human MSLN-FL-his protein; experiment: ELISA, coated antigen; antibody 100 nM
Method: as §1

[5] = molecular target: T1, human MSLN-R1-his protein; experiment: ELISA, coated antigen; antibody 0.001 nM
Method: as §1

[6] = molecular target: T1, human MSLN-R1-his protein; experiment: ELISA, coated antigen; antibody 0.0001 nM
Method: as §1

[7] = molecular target: T1, human MSLN-R1-his protein; experiment: ELISA, coated antigen; no antibody (blank, column 'none')
Method: as §1

[8] = molecular target: T3, human MSLN-FL-his protein; experiment: ELISA, coated antigen; antibody 0.001 nM
Method: as §1

[9] = molecular target: T3, human MSLN-FL-his protein; experiment: ELISA, coated antigen; antibody 0.01 nM
Method: as §1

[10] = molecular target: T3, human MSLN-FL-his protein; experiment: ELISA, coated antigen; antibody 10 nM
Method: as §1

[11] = molecular target: T3, human MSLN-FL-his protein; experiment: ELISA, coated antigen; no antibody (blank, column 'none')
Method: as §1

[12] = molecular target: T1, human MSLN-R1-his protein; experiment: ELISA, coated antigen; antibody 1 nM
Method: as §1

[13] = molecular target: T1, human MSLN-R1-his protein; experiment: ELISA, coated antigen; antibody 0.1 nM
Method: as §1

[14] = molecular target: T3, human MSLN-FL-his protein; experiment: ELISA, coated antigen; antibody 1 nM
Method: as §1

[15] = molecular target: T1, human MSLN-R1-his protein; experiment: ELISA, coated antigen; antibody 100 nM
Method: as §1

[16] = molecular target: T1, human MSLN-R1-his protein; experiment: ELISA, coated antigen; antibody 10 nM
Method: as §1

[17] = molecular target: T2, monkey MSLN full-length protein (NCBI: …); experiment: FACS on HEK293T-monkey MSLN cells
Method: (§2) The desired cells were expanded to the logarithmic growth phase in a T-75 cell culture flask. […] After the cells from the previous step were subjected to cell counting, the cell pellet was resuspended to 2×10⁶ cells/mL in a blocking buffer of [PBS+2% (w/w) BSA] and added into a 96-well FACS reaction plate at 50 μL/well. A chimeric antibody (a sample to be tested) was added at 50 μL/well, and the plate was incubated on ice for 2 h. […] After the plate was centrifuged and washed 5 times with a PBST buffer, assay and analysis were performed by FACS (FACS CantoII, purchased from BD). Data analysis was performed by software (Flowjo) to obtain the mean fluorescence intensity (MFI) of the cells.

[18] = molecular target: T4, human MSLN-R3 protein (Met487-Ser606 of NCBI AAH09272.1) expressed on HEK293T-hMSLN-R3 cells (human, UniProt Q13421 487-606); experiment: FACS on HEK293T-hMSLN-R3 cells
T4 construct: also called Region3

[19] = molecular target: T5, human MSLN full-length protein (NCBI: AAH09272.1) expressed on HEK293T-hMSLN-B8 cells (human, UniProt Q13421 296-598); experiment: FACS on HEK293T-hMSLN-B8 cells
T5 construct: Whole encoded precursor
Method: as §2

[20] = molecular target: T6, human MSLN protein endogenously expressed on OVCAR3 tumor cells (human, UniProt Q13421 296-598); experiment: FACS on OVCAR3 cells
T6 construct: whole, on cells; Endogenous target on OVCAR3 cells; kept apart from the recombinant full-length construct; also called mesothelin
T6 sequence (Q13421 other isoform, or with tags, fused parts or gaps): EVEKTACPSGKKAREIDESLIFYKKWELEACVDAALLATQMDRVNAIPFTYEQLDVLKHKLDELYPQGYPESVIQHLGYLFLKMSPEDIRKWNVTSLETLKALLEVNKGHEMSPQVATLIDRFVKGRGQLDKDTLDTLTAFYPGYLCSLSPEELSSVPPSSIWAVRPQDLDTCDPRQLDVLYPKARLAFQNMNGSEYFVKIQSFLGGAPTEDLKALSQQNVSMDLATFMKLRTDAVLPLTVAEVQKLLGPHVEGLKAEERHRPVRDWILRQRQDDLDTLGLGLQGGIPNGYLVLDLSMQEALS

T4 sequence (Q13421 495-614): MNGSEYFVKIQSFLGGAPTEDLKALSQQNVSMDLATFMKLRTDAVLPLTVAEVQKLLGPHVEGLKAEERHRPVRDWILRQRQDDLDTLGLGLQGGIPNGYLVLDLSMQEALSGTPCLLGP
T5 sequence (Q13421 other isoform, or with tags, fused parts or gaps limits assumed): as the sequence (Q13421 other isoform, or with tags, fused parts or gaps) above, with R14P counted along it

| Binder | OD450 [1] | OD450 [2] | OD450 [3] | OD450 [4] | OD450 [5] | OD450 [6] | OD450 [7] | OD450 [8] | OD450 [9] | OD450 [10] | OD450 [11] | OD450 [12] | OD450 [13] | OD450 [14] | OD450 [15] | OD450 [16] | further results |
| --- | --- | --- | --- | --- | --- | --- | --- | --- | --- | --- | --- | --- | --- | --- | --- | --- | --- |
| S009-F1.35.24 human-murine chimeric antibody (antibody, human IgG1, kappa, V domains shown, Chimeric IgG1/kappa) VH: EVQLQQSEPELVKPGASVRISCKASGYSFTDYYMHWVKQSPENRLEWIGEINPSTGGTSYNPKFKDKATLTVDKSSSTAYMQLKSLTSEESAVYYCTRYHYYGSSSYVMDYWGQGTSVTVSS VL: QIVLTQSPAILSASPGERVTMTCSASSSVYHMHWFQQKSGTSPKRWVYDTSKLASGVPARFSGSGSGTSYSLTISSMEAEDAATYYCQHWRTNPLTFGAGTKLELKR | 1.62 | 0.06 | 0.04 | 2.48 | 0.04 | 0.04 | 0.04 | 0.09 | 0.41 | 2.27 | 0.06 | 0.04 | 0.04 | 2.22 | 0.06 | 0.04 | – |
| S009-F1.7.14 human-murine chimeric antibody (antibody, human IgG1, kappa, Chimeric IgG1/kappa) heavy: not shown light: QIVLTQSPAIMSASPGEKVTISCSASSSVSYMYWYQQKPGSSPKPWISRTSNLASGVPARFSGSGSGTSYSLTISSMEAEDAATYYCQQYHSYPPTLGAGTKLELKRTVAAPSVFIFPPSDEQLKSGTASVVCLLNNFYPREAKVQWKVDNALQSGNSQESVTEQDSKDSTYSLSSTLTLSKADYEKHKVYACEVTHQGLSSPVTKSFNRGEC | 0.3 | 0.06 | 0.04 | 2.59 | 0.04 | 0.05 | 0.05 | 0.06 | 0.08 | 2.05 | 0.06 | 0.05 | 0.05 | 1.43 | 0.27 | 0.07 | – |
| S009-F1.59.1 human-murine chimeric antibody (antibody, human IgG1, kappa, V domains shown, Chimeric IgG1/kappa) VH: EVKLEGSGGGLVQPGGSMMLSCVATGFTFSSYWMNWVRQSPDRGLEWVAEIRLKSNGFAAFYAESVKGRFTISRDDSKSSVYLQMNNLRTEDTGIYYCTYFVHWGQGILVTVSE VL: DIVLTQSPTSLAVSLGQRATISCRTSESVEYFGTILIQWYQQKPGQPPKLLIFGASNVESGVPARFSGSGSGTDFSLNIHPVEEEDIAMYFCQQNRKVPYTFGGGTTLELKR | 1.76 | 0.06 | 0.05 | 2.65 | 0.04 | 0.03 | 0.05 | 0.1 | 0.47 | 2.38 | 0.05 | 0.03 | 0.03 | 2.31 | 0.06 | 0.04 | – |
| S009-F1.25.10 human-murine chimeric antibody (antibody, human IgG1, kappa, V domains shown, Chimeric IgG1/kappa) VH: EVQLQQSGPELVKPGASLKISCKASGYSFTDYTMNWVKQSHGKNLEWIGLFNPYNGGISYNQKFKGKATLTVDKSSNTAYMELLSLTSDDSAVYFCARDGRGGFYAMDYWGQGTSVTVSS VL: DIQMTQTTSSLSASLGDRVTISCRASQDISIYLNWYQQKPDGPVKLLIYYTSRLHSGVPSRFSGSGSGTDFSLTISNLEQEDIATYFCQQGYTLPPWTFGGGTKLEIKR | 1.67 | 0.06 | 0.04 | 2.57 | 0.05 | 0.04 | 0.05 | 0.1 | 0.43 | 2.44 | 0.06 | 0.03 | 0.03 | 2.3 | 0.05 | 0.04 | – |
| S009-F1.57.1 human-murine chimeric antibody (antibody, human IgG1, kappa, V domains shown, Chimeric IgG1/kappa) VH: EAQLQQSGAVFVKPGASVKLSCTASGFSSKDIFLHWVKQRPEQGLEWIGRIDPASDNTIYDPKFQDRATITSDRSSNTAYLQFSSLTSEDTAVYFCLYFDFWGQGTTLTVSS VL: DIVMTQATPSISVTPGESVSISCRSSESLLHSNGNTYLYWFLQRPGQSPQLLIYRMSNLASGVPDRFSVSGSGTAFTLRISRVEAEDVGVYYCMQHLEYPLTFGAGTKLELKR | 0.82 | 0.05 | 0.05 | 2.51 | 0.04 | 0.04 | 0.05 | 0.06 | 0.15 | 2.42 | 0.05 | 0.03 | 0.03 | 2.03 | 0.07 | 0.04 | – |
| S009-F1.2.12 human-murine chimeric antibody (antibody, human IgG1, kappa, V domains shown, Chimeric IgG1/kappa) VH: QVQLKQTGPGLVQPSQSLSITCTVSGFSLTNYAVHWVRQSPGKGLEWLGVIWSGGATDYNTVFISRLSISKDNSKSQVFFKVNSLQVDDTAIYYCARTGSGYAMDYWGQGTSVTVSS VL: DIVLTQSPATLSVTPGDRVSLSCRTSHNVNTYLHWYQQKSHESPRLLIKYASQSISEIPSRFSGSGSGTNFTLSINSVETEDFGMYFCHQTNRWPLTFGAGTKLELKR | 1.75 | 0.06 | 0.04 | 2.74 | 0.05 | 0.04 | 0.04 | 0.11 | 0.49 | 2.31 | 0.06 | 0.04 | 0.05 | 2.27 | 0.05 | 0.05 | – |
| S009-F1.56.1 (antibody, human IgG1, kappa, V domains shown, human-murine chimeric antibody, human IgG1/kappa constant regions) VH: EVQLQQSGAEVVKPGASVKLSCTASGFNIRHTYMHWVKQRPEQGLEWIGRIDPANGNTEYDPKFQGKATITADTSSNTAYLQLSSLTSEDTAVYYCARDGWYIDVWGAGTTVTVSS VL: DIVMSQSPSSLAVSVGEKVTMSCKSSQSLLYSNNQKNYLAWYQQKPGQSPKLLIYWASTRESGVPDRFTGSGSGTDFTLTISSVKAEDLAVYYCQRYYSYPWTFGGGTKLEIKR | – | – | – | – | – | – | – | – | – | – | – | – | – | – | – | – | EC50 [17]: 0.79 nM; Maximum mean fluorescence intensity [17]: 43100; Maximum mean fluorescence intensity [18]: 363; binding result [18]: no binding; EC50 [19]: 1.59 nM; Maximum mean fluorescence intensity [19]: 96300; EC50 [20]: 0.67 nM; Maximum mean fluorescence intensity [20]: 11700 |
| S009-F1.56.1 human-murine chimeric antibody (antibody, human IgG1, kappa, V domains shown, Chimeric IgG1/kappa) VH: EVQLQQSGAEVVKPGASVKLSCTASGFNIRHTYMHWVKQRPEQGLEWIGRIDPANGNTEYDPKFQGKATITADTSSNTAYLQLSSLTSEDTAVYYCARDGWYIDVWGAGTTVTVSS VL: DIVMSQSPSSLAVSVGEKVTMSCKSSQSLLYSNNQKNYLAWYQQKPGQSPKLLIYWASTRESGVPDRFTGSGSGTDFTLTISSVKAEDLAVYYCQRYYSYPWTFGGGTKLEIKR | 1.83 | 0.05 | 0.03 | 2.74 | 0.05 | 0.04 | 0.05 | 0.11 | 0.55 | 2.44 | 0.05 | 0.05 | 0.04 | 2.3 | 0.12 | 0.06 | – |

— patent US20250250357A1 (NANJING ZAIMING PHARMACEUTICAL, published 2025)
